Experimental data taken from paper PMC4015666 (Journal of Diabetes Investigation, 2013).

Experiments:
[1] = parameters: species or system healthy Japanese adult males; conditions: in vivo
[2] = Hypoglycemia monitoring after insulin lispro injection; format: in vivo, healthy Japanese adult males; conditions: 1.5 or 2.0 U s.c. abdomen, 12 participants, three tests each
[3] = 0.025‐U/kg dose; cited from earlier work

## insulin lispro
[1]
  Bioequivalence of AUC0–∞: bioequivalent
  Bioequivalence of Cmax: bioequivalent
  Bioequivalence of Tmax: bioequivalent
[2]
  participants who developed severe hypoglycemia (<50 mg/dL): None
[3]
  half‐life: 53 min
  time to the maximum insulin concentration (Tmax): approximately 37 min
